Test [1] has as its target T1, CDCP1 expressed on the surface of human cells (PC3, H1299, H2009 and others) (human, UniProt Q9H5V8 30-836).
T1 construct: Endogenous CDCP1 of human cell lines; also called CDCP1 antigen expressed on PC3 cells; CDCP1 expressing cells
In words: flow cytometry on PC3 cells (prostate cancer), anti-human IgG Fc R-PE detection. How it is done: (§1) Binding was evaluated on three human cancer cell lines, PC3 (prostate cancer), H1299 (Non-small cell lung cancer), and H2009 (lung adenocarcinoma). To accomplish this, adherent cells were first dissociated with Cell Dissociation Buffer (Life Technologies #13150-016), pelleted by centrifugation, and resuspended by FACS buffer (PBS-CMF, 3% FBS, 0.1% weight/volume (w/v) sodium azide). […] Following a thirty-minute incubation on ice in dark, the cells were washed twice, combined with eFluor 660 Fixable Viability Dye (eBioscience #65-0864-18), and fixed (BD Cytofix, BD Biosciences #554655). Stained cells were acquired on a LSR Fortessa instrument using BD FACSDiva Software. Background subtracted gMFI of viable cells was determined using FlowJo software and plotted using Graphpad Prism software to generate EC₅₀ s (FIGS. 26A and 26B).
In general terms: Flow cytometry measures light scatter and fluorescence of single cells or particles in a stream.

For test [2], the target named is T1, CDCP1 expressed on the surface of human …. The test can be described thus: flow cytometry on H1299 cells (NSCLC), anti-human IgG Fc R-PE detection. The protocol: as §1
Test [3] has the same target. In words: flow cytometry on H2009 cells (lung adenocarcinoma), anti-human IgG Fc R-PE detection. How it is done:
as §1

Test [4] concerns the target T2, recombinant human CDCP1 extracellular domain (CDCP1-ECD) (human, UniProt Q9H5V8 30-663).
T2 construct: Expressed in HEK293 and chemically biotinylated for the phage selection; also called human CDCP1 ECD; human CDCP1-ECD
In words: SPR (Biacore T200), antibody captured on anti-human IgG, CDCP1-ECD injected. The protocol:
(§2) Specifically, the binding kinetics of anti-CDCP1 antibodies against recombinant human, cynomologus monkey and mouse CDCP1-ECD were determined using surface plasmon resonance (SPR) and a Biacore T200 instrument (GE Healthcare). An anti-human IgG antibody was amine coupled onto a CM5 carboxymethylated dextran sensor chip surface (GE Healthcare), using the manufacturer's recommendations, to densities of approximately 10,000-13,000 response units (RU). Each anti-CDCP1 antibody was diluted to 0.5 μg/mL in 10 mM HEPES pH 7.4, 0.15 M NaCl, 3 mM EDTA, 0.05% P-20 (HBS-EP+) and captured for about 20-23 seconds at a flow rate of 10 μL/min. […] The sensorchip surface was regenerated with three 30 second pulses of 3M MgCl₂ at a flow rate of 50 μL/minute. All injections used HBS-EP+ as both the running and sample buffer and were performed at 25° C. with a data collection rate of 1 Hz. Sensorgrams were double referenced by using both a control surface and buffer injections. Rate constants were determined by fitting the data to a 1:1 model with Biacore T200 evaluation software v3.0 and the equation KD=kd/kₐ.
In general terms: In SPR one partner is held on a chip, and binding of the other changes the refractive index at the surface.

Test [5] concerns the target T3, recombinant cynomolgus monkey CDCP1 extracellular domain (cynomolgus monkey, UniProt A0A2K5VLA8 30-663).
T3 construct: range 30-663; also called cyno CDCP1 ECD; cynomolgus monkey CDCP1-ECD
The test is described as above. How it is done:
as §2

Test [6] has as its target T2, recombinant human CDCP1 extracellular …. The test can be described thus: SPR (Biacore T200), antibody captured on anti-human IgG, CDCP1-ECD injected; experiment 2. The protocol:
as §2

For test [7], the target named is T3, recombinant cynomolgus monkey CDCP1 …. The description is as above. How it is done: as §2
Test [8] has as its target T1, CDCP1 expressed on the surface of human …. The test can be described thus: competition FACS on PC3 cells; competitor (reporter) biotinylated CP13E10.
Test [9] has the same target. In words: competition FACS on PC3 cells; competitor: biotinylated CP13E10 reporter at 1.5 µg/mL, streptavidin-PE detection. The protocol: For this competition FACS assay procedure, PC3 cells were detached from flasks using cell dissociation buffer (Gibco, catalog number 13151-014), washed once with ice-cold FACS buffer (PBS-CMF pH 7.2+3% FBS+0.1% sodium azide) and 2.5×10⁵ cells in 50 μl buffer were added to each well in 96-well V-bottom plates (Corning catalog number 3894). […] Next, the cells were washed twice with FACS buffer. Streptavidin-PE (Invitrogen/eBioscience catalog number 12-4317-87) diluted 1:200 was added and incubated for 30 minutes at room temperature. The cells were washed twice with FACS buffer and were fixed on ice for 15 minutes by adding 100 μl of BD Cytofix (BD Biosciences catalog number 554655) to each well. The cells were washed twice with FACS buffer.

Test [10] addresses T2, recombinant human CDCP1 extracellular …. The test can be described thus: competition ELISA of Example 7 on CDCP1-ECD (biotinylated CP13E10-54HC-89LC reporter as described there; the reporter is not named on the sheet). Background: ELISA stands for enzyme-linked immunosorbent assay.
Protocol: The CDCP1-ECD protein was diluted to 1 μg/ml in PBS-CMF pH 7.2, 100 μl was added to each well of the plate, and the plate was incubated overnight at 4° C. The contents of the plate were discarded and then the plate was blocked with PBS-CMF pH7.2+0.02% casein for 3 hours at room temperature. […] The wells were washed four times with PBS-CMF pH7.2+0.03% tween-20. Streptavidin-HRP (catalog #7100-05, Southern Biotech, (Birmingham, Alabama) diluted 1:10,000 was added and incubated for 30 minutes at room temperature. The wells were washed four times with PBS-CMF pH 7.2+0.03% tween-20 and then TMB (BioFx) was added. The reaction developed for 5 to 10 minutes and was then quenched with 0.18 N H₂SO₄. The absorbance at 450 nm was determined and the results are shown in FIG. 7.
The target is the same in test [11]. The test can be described thus: SPR, Biacore T200. The protocol: as §2
Test [12] has as its target T3, recombinant cynomolgus monkey CDCP1 …. In words: SPR, Biacore T200. How it is done: as §2
Test [13] deals with T1, CDCP1 expressed on the surface of human …. The test can be described thus: immunoprecipitation: antibody 76 (20 ng/ml) added to intact PC3 cells (80 min, 4 °C), Western blot.
The target is the same in test [14]. In words: immunoprecipitation: antibody 24 (5 µg/ml) added to intact PC3 cells (80 min, 4 °C), Western blot.

Positions count from the first letter of the chain named.

What is called EC50 is the concentration giving half of the maximal effect. The term Kd denotes a measure of binding affinity in units of concentration.

T3 sequence (A0A2K5VLA8 entry or part of it): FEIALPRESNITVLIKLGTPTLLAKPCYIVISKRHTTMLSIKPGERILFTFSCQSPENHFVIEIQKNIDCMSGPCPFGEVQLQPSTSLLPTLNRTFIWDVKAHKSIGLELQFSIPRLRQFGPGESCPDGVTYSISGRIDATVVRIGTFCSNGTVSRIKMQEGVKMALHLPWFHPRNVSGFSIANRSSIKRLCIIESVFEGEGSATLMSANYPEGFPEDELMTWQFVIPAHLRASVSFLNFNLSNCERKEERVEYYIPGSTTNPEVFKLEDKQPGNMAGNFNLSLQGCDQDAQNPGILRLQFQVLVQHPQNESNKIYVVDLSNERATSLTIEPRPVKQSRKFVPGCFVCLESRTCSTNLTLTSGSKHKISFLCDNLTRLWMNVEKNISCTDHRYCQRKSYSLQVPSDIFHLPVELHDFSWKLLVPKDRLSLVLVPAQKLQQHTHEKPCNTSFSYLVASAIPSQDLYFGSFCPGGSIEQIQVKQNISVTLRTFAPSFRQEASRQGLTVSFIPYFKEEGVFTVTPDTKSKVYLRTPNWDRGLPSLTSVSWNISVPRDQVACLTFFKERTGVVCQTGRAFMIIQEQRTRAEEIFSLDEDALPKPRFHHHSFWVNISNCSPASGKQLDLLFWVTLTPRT

B1: CP13E10-54HC-89LC (antibody, human IgG1, kappa, V domains shown)
VH: EVQLVQSGAEVKKPGASVKVSCKASGYTFTSYYMHWVRQAPGQGLEWMGIINPSGGSTSYAQKFQGRVTMTRDTSTSTVYMELSSLRSEDTAVYYCARDGELRHFDHLLDYHYYMDVWGQGTTVTVSS
VL: EIVLTQSPATLSLSPGERATLSCRASQSVGSYLAWYQQRPGQAPRLLIYDASNRATGIPARFSGSGSGTDFTLTISSLEPEDFAVYYCQQRAQEFTFGQGTKVEIKR
notes: Human IgG1, kappa; Alexa Fluor 647 conjugated in the internalization assay; also called CP13E10-54VH-89VL
Take B1: the EC50 in [1] is 1.69 nM; in test [2], 0.73 nM; in test [3], 0.77 nM. Moreover, the dissociation constant (Kd) in test [4] was 52.9 nM; in test [5], 79.9 nM; in test [6] it was 42 nM; in test [7] it was 63.4 nM.

B2: CP13E10-34 variant (antibody, V domains shown)
VH: B1 VH with E101V, Q120K
VL: B1 VL with Q93N, E94V
As to B2, the “fold lower binding relative to parental CP13E10” value in test [8] is more than 7 fold. Also, the Kd in test [4] is 607 nM.

B3: CP13E10-54 variant (antibody, human IgG1, kappa, V domains shown)
VH: B1 VH
VL: B1 VL with Q93N, E94V
As to B3, the “IC50 (read off the curve)” value in test [9] is approximately 9 nM.

B4: CP13E10-54HCv13-89LCv1 (antibody, human IgG1, kappa, V domains shown)
VH: B1 VH with G100A
VL: B1 VL with L4M, R39K, E79Q
Turning to B4, the “IC50 (read off the curve)” value in [10] is approximately 5 nM.

B5: CP13E10-291 (antibody, human IgG1, kappa, V domains shown)
VH: B1 VH with H107Q, L108V, L109Y, D110N
VL: B1 VL with Q93N, E94V
notes: Human IgG1, kappa
For the molecule B5, the “fold increase in affinity relative to CP13E10-34” value in test [11] was more than 200 fold. Also, the “fold increase in binding relative to CP13E10-WT” value in test [12] was more than 70 fold. In addition, the Kd is 2.9 nM in test [4] and 3.12 nM in test [5].

B6: CP13E10 (antibody, human IgG1, kappa, V domains shown)
VH: B1 VH with E101V, H104Y, H107W, H112Y, Q120K
VL: B1 VL with Q93N, E94V
notes: Human IgG1, kappa; Heavy chain can be prepared with or without the C-terminal lysine; also called CP13E10-WT; parental CP13E10 antibody
As to B6, in [9], the “IC50 (read off the curve)” value is approximately 7 nM. In addition, the figures for the Kd in [4] and in test [5] were 219 nM and 232 nM, respectively.

B7: antibody 76 (antibody, human IgG1, lambda, V domains shown)
VH: QVQLVQSGAEVKKPGSSVKVSCKASGGTFSSYAISWVRQAPGQGLEWMGGIIPIFGTANYAQKFQGRVTITADKSTSTAYMELSSLRSEDTAVYYCARDPTYFDWTRRGYYYMDVWGKGTTVTVSS
VL: SYELTQPPSVSVSPGQTARITCSGDALPKKYAFWYQQKSGQAPVLVIYEDSKRPSGIPEKFSGSSSGTMATLTISGAQVEDEADYYCYSTDSSDNPRGVFGGGTKLTVLG
notes: Human IgG1, lambda
For B7, the binding result in test [13] was “binds”.

B8: antibody 24 (antibody, human IgG1, kappa, V domains shown)
VH: QVQLVESGGGVVQPGRSLRLSCAASGFTFSSYGMHWVRQAPGKGLEWVAVISYDGSNKYYADSVKGRFTISRDNSKNTLYLQMNSLRAEDTAVYYCARGVGLPDIWGQGTMVTVSS
VL: EIVMTQSPDTLSLSPGERATLSCRASQKIYYSYLAWYQQKPGQAPRLLISGASTRASDISDRFSGGGSGTDFTLTINSLESEDAAVYYCQQYDSLPVTFGRGTKLEIKR
notes: Human IgG1, kappa
Regarding B8, in [14], the binding result is reported as “binds”.
